Where two headings read alike, the source gives them in different places.
Legend:
[1] = biological target: T1, GST-fused Par-3 PDZ2 with its associated basic region (BR-PDZ2) (UniProt O96782 1-1464)
T1 chain: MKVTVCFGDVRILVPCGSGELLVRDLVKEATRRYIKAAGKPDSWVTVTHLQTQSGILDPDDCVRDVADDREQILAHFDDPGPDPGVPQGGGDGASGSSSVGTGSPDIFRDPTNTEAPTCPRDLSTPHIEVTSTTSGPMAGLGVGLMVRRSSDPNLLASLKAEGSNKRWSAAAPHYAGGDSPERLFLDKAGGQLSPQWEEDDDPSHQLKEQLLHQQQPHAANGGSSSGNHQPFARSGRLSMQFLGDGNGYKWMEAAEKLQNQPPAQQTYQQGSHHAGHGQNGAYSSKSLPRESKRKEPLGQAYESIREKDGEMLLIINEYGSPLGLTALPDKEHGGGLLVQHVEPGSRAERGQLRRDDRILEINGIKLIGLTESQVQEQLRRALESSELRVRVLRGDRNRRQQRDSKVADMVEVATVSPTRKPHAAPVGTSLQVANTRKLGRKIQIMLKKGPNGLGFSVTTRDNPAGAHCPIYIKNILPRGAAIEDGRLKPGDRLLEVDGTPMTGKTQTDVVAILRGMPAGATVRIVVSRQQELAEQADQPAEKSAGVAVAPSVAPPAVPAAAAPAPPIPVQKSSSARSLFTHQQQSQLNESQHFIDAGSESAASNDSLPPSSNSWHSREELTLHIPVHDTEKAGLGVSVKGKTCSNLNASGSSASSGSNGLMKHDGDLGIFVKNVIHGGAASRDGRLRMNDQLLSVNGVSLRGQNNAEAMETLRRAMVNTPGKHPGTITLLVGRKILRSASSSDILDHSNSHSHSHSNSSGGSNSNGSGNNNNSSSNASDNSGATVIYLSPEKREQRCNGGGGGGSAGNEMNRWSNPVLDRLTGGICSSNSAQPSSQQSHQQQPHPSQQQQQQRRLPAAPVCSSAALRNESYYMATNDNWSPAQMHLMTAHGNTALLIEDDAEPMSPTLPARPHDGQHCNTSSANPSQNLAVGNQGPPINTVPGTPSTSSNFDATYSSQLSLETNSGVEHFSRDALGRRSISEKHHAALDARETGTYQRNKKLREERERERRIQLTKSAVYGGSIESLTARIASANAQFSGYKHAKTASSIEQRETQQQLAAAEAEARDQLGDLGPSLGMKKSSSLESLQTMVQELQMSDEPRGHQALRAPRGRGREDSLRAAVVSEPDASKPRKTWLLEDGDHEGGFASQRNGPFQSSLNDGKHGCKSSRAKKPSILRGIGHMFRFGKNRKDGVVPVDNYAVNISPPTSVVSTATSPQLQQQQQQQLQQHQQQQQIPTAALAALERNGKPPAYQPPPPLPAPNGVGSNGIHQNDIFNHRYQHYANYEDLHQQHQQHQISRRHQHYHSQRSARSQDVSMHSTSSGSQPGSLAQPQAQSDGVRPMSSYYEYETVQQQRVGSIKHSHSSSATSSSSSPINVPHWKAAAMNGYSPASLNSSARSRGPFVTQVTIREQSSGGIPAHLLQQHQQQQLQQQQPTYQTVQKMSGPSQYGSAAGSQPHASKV

[2] = biological target: T1, GST-fused Par-3 PDZ2 with its …; experiment: with Par-6 CRIB-PDZ added in trans
[3] = biological target: T2, GST-fused Par-6 CRIB-PDZ (UniProt O97111 130-255); experiment: pull-down; GST-Par-6 CRIB-PDZ on glutathione resin, Par complex ΔCRIB-PDZ with soluble Par-3 BR-PDZ2 added; same buffer, 60 min at RT; Coomassie, normalized band intensity of aPKC; conditions: both partners purified
T2 construct: Par-6, CRIB motif and PDZ domain; also called GST Par-6 CRIB-PDZ
T2 sequence (looked up): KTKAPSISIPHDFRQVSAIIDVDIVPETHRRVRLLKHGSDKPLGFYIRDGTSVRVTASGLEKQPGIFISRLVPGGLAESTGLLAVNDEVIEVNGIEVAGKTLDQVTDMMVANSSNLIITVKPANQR

B1: Par complex ΔCRIB-PDZ (full-length aPKC plus the Par-6 PB1 domain) (complex)
chain 1: MQKMPSQILNDGSSVSLNSASMNMANTPNSITVKTAYNGQIIITTINKNISYEELCYEIRNICRFPLDQPFTIKWVDEENDPCTISTKMELDEAIRLYEMNFDSQLVIHVFPNVPQAPGLSCDGEDRSIYRRGARRWRKLYRVNGHIFQAKRFNRRAFCAYCQDRIWGLGRQGFKCIQCKLLVHKKCHKLVQKHCTDQPEPLVKERAEESSDPIPVPLPPLPYEAMSGGAEACETHDHAHIVAPPPPEDPLEPGTQRQYSLNDFELIRVIGRGSYAKVLMVELRRTRRIYAMKVIKKALVTDDEDIDWVQTEKHVFETASNHPFLVGLHSCFQTPSRLFFVIEFVRGGDLMYHMQRQRRLPEEHARFYAAEISLALNFLHEKGIIYRDLKLDNVLLDHEGHIKLTDYGMCKEGIRPGDTTSTFCGTPNYIAPEILRGEDYGFSVDWWALGVLLYEMLAGRSPFDLAGASENPDQNTEDYLFQVILEKTIRIPRSLSVRAASVLKGFLNKNPADRLGCHRESAFMDIVSHPFFKNMDWELLERKQVTPPFKPRLDSDRDLANFPPEFTGEAVQLTPDDDHVIDNIDQSEFEGFEYVNPLLMSLEDCV
chain 2: MSKNKINTTSATAASDTNLIEVKSKFDAEFRRWSFKRNEAEQSFDKFASLIEQLHKLTNIQFLILYIDPRDNDLLPINNDDNFGRALKTARPLLRVIVQRKDDLNEYSGFGTMKPRNLIGSILMGHTPV
notes: atypical PKC (aPKC), full length; Par-6, PB1 domain; The complex was His-purified; also called full-length aPKC with Par-6 PB1; source: HEK 293F, co-transfected, purified (cobalt resin, anion exchange)
Kd [1]: 161 µM
Kd [2]: 11.3 µM
fold increase of binding with Par-3 PDZ2 against without Par-3 [3]: > 20 fold

Reference: publication PMC11774777, “A PDZ-kinase allosteric relay mediates Par complex regulator exchange” (The Journal of Biological Chemistry, 2024)
